Measured values as given in a protein production outcome set (Wang et al. 2014).

Test: label from the status in PepcDB records

## MSFNVFSGSFGQIFKRSRKNSHEYKNENATFELIKSSILVAFSGALRIHLAFLLMYIQSNILVCIAGGLIIYTVYTLDRALGSEEDSVNRKELNGSNKKVGLTVSLLAFMVGTYILAGEEMLPLAFIPFVTGYLYSKGIKIGKFALKLKGGLGVKNIVVGLTWGIFIAGLAGSGCRNLIPVVLIFIFFGVKLFINSTIYDFKDIAGDTLAGINTLPVSLGVRKTRNLLTGMHLFSHLVIGVALIHGALAFEPLIVLYSFVCGLICIQKFTHPEYEEFPSQKMERTLLVDGESTSITGLRIAGYLIA
  protein production: failed

## MPHRCAAQVVAGYRSTVSLVLVEHPRPEIAQITLNRPERMNSMAFDVMVPLKEALAQVSYDNSVRVVVLTGAGRGFSPGADHKSAGVVPHVENLTRPTYALRSMELLDDVILMLRRLHQPVIAAVNGPAIGGGLCLALAADIRVASSSAYFRAAGINNGLTASELGLSYLLPRAIGSSRAFEIMLTGRDVSAEEAERIGLVSRQVPDEQLLDACYAIAARMAGFSRPGIELTKRTLWSGLDAASLEAHMQAEGLGQLFVRLLTANFEEAVAARAEQRAPVFTDDT
  protein production: failed

## MPADWLARPRFVSAFSIVVFLLLAAFGEYVVRIEAERLRVIAQNQVLAEASTIRARLEGELYSTLYLANGLSSYVSAHKALDPAAVKIILSTVFGYGRHLRNIVLAPDNEVRFTYPLKGNEKVIGFRYQDNAEQWRAVKRAMETRTTVLSGPVDLVQGGRGLISRTPVFLPDGEYWGIVALVINIDSLFATINKDRRPARITWALRSNDETGEKGRILFGDAWLFDHDHVNLSIAIPGGSWELAATPAEGWRPPGKRLLVLRIATLALSGLIAALVFLVLFERIRIQHLALHDSLTDLPNRRLLDDRLERAIAQARRNRDGFALLYVDLDDFKPINDRFGHRAGDHVLVEIARRLRGALRRADTVARVGGDEFMLILPGARGRHGAMTVVQKLAGIICQPIGYKGQYLNVSASIGVSTYPENGVTADALISHADGSMYRFKQHRKSPTDINGNQRSGAVSSEVS
  protein production: failed

## MTEPANNHPSPPPQNWLFKWWNSLNAITRLLVLVLGAPLMVLNARALSSIFGYFESLFVISLIASVIAFLLNYPVAWLEKQGAKRFVAASFVFLTALIIFTALGVTLIPLALSQAQQLVARLPDWLDSGQKQLVLLDQKAEILGWPVNFDGLIPQINSRLAAELQNLAGSTLNLALSLTVFTVVRLLDVLLTIILTFYLLLHTDDVWQSIIGWLPERFQKPFSDTLRRSFQNYFLGQLVSATCMALGLISGFLLLKVPFGLLFGLTVGVMALIPFGGSVGIVLVTFLVALRDIGMALQLLAVALVIQQIVENGIAPRVLGSVTGLNPFWVLISLLTGARIGGLLGVIVAVPSAVMIKEALGAIRSMKPLVPAPDHNQDPLYFKNQEEVQPLPPRP
  protein production: failed

## GQRQPSEQELLFRQQALLLEQQRIHQLRNYQASMEAAGIPVSFGGHRPLSRAQSSPASATFPVSVQEPPTKPRFTTGLVYDTLMLKHQCTCGSSSSHPEHAGRIQSIWSRLQETGLRGKCECIRGRKATLEELQTVHSEAHTLLYGTNPLNRQKLDSKKLLGSLASVFVRLPCGGVGVDSDTIWNEVHSAGAARLAVGCVVELVFKVATGELKNGFAVVRPPGHHAEESTPMGFCYFNSVAVAAKLLQQRLSVSKILIVDWDVHHGNGTQQAFYSDPSVLYMSLHRYDDGNFFPGSGAPDEVGTGPGVGFNVNMAFTGGLDPPMGDAEYLAAFRTVVMPIASEFAPDVVLVSSGFDAVEGHPTPLGGYNLSARCFGYLTKQLMGLAGGRIVLALEGGHDLTAICDASEACVSALLGNELDPLPEKVLQQRPNANAVRSMEKVMEIHSKYWRCLQRTTSTAGRSLIEAQTCENEEAETVTAMASLSVGVKPA
  protein production: failed

## MSEALELLGQDIVARAPGVLGHSVAFGELTIVARAASVIDTLTFLRDDAACRFHQLIDLTGVDYPERAARFDVVYHLLSLVKNHRIRLKVSTDEDTPVPSVTPVFPVADWFEREAFDMYGIFFDGHPDLRRILTDYGFHGHPLRKDFPMTGYVEVRYDDELKRVVYEPVKITEFRAFDFLSPWEGAKYALPGDEKAQ
  protein production: failed

## MSVFTPLARPELETFLAPYGLGRLLDYQGIAAGSENTNYFISLEQGEFVLTLVERGPVQEMPFFIELLDVLHDANLPVPYALRTTDGQALRELAGKPALLQPRLPGKHISEPNTQHCVQIGELLANLHLATREQVLERKTDRGLDWMLSEGRNFLSHLGETQRALLEKSLQEIEDLKPQIMALPRANLHADLFRDNVLFEGTHLTGLIDFYNACSGPMLYDLAIALNDWCSRENGQLDAVRARALLGAYAGLRPFTAAESKLWATMLRIACVRFWLSRLIAAETFAGQDVLIHDPVEFEQRLAERQTPHIALPFAL
  protein production: not failed

## MGHHHHHHSHMQDRRSVCIFLPNDESLNIIINVKILCHQLLVQVCDLLRLKDCHLFGLSVIQNNEHVYME
  protein production: not failed

## MPAVARIDPKTIFTPDEWARLTHRSSARGLWLVAHAWGCIALAVALVTIWPNPLTWLIAVMIVGTRQLGLAILMHEAAHGGLHCNPKLNEWIGQWLCAVPVGADLPAYRRYHLQHHKYTQQPEDPDLVLSAPFPISKDSFVRKAIRDLTGQTFVKQRLPALKALFAPADSGAPKHDSFVASGKARTQRFLAANAVLLALFWLAGAGVWFVGVWLVAMATWLPLVTRVRNIAEHACTSTGADPFSQARTTLANPIERALIAPYWVNYHAEHHLFMYLPCYNLPEAHRLLRDKGLIDRVTVAPSYRDVLKLATTRPRAVAAE
  protein production: failed

## MMQSRRVQESLVGLVILAGLATLGVGLLWLRGNLAGANSYTLEVELDTAPGLAVGTQVRYRGVQVGRVTAIGFDANGVQVSVRINNVLIPRRAVPEIRQSGFIGQAFLDFTPKERVPEIPEGVTAFAPKCQPELVYCNGDRVTGVRTASLEDLVRAATRFTTALEESGLINNANTLILGATRIVNRADQSLTKVTTALDSFNALSNQARAELRNFGIAAQAVTRAANQISEIVEVNRNTINSSLRNIDSAARELRTTLKALHPLTNQLEQGELLANLDALIKNGAEAAANLNKVSGALSSPLIMLSIAQTLDAARATFINAQKLTNDLLKLTSDPSFQSDLRRLIQILRRLLASSQDLEQQFLALHATSLGEAHEPMPAISAPTAAAKPTKEEEPEP
  protein production: failed

## NDQDAIQEKFYPPRFIQVPENMSIDEGRFCRMDFKVSGLPAPDVSWYLNGRTVQSDDLHKMIVSEKGLHSLIFEVVRASDAGAYACVAKNRAGEATFTVQLDVLAKEHKRAPMFIYKPQSKKVLEGDSVKLECQISAIPPPKLFWKRNNEMVQFNTDRISLYQDNTGRVTLLIKDVNKKDAGWYTVSAVNEAGVTTCNTRLDVTARPNQTLPAPKQLRVRPTFSKYLALNGKGLNVKQAFNPEGEFQRLAAQSGLYESEEL
  protein production: failed

## MASTVSVQPGRIRILKKGSWQPLDQTVGPVVYWMFRDQRLKDNWALIHAVDLANRTNAPVAVVFNLFDQFLDAKARQLGFMLKGLRQLHHQIDSLQIPFFLLQGDAKETIPNFLTECGASHLVTDFSPLREIRRCKDEVVKRTSDSLAIHEVDAHNVVPMWAASSKLEYSARTIRGKINKLLPDYLIEFPKLEPPKKKWTGMMDKKLVDWDSLIDKVVREGAEVPEIEWCVPGEDAGIEVLMGNKDGFLTKRLKNYSTDRNNPIKPKALSGLSPYLHFGQVSAQRCALEARKVRSTSPQAVDTFLEELIVRRELSDNFCYYQPHYDSLKGAWEWARKSLMDHASDKREHIYSLEQLEKGLTADPLWNASQLEMVYQGKMHGFMRMYWAKKILEWTKGPEEALSISIYLNNKYEIDGRDPSGYVGCMWSICGVHDQGWKERPVFGKIRYMNYAGCKRKFNVDSYISYVKSLVSVTKKKRKAEEQLTRDSVDPKITIV
  protein production: failed

## MRAYQIMSRQVVSIRPEAPITDAIKVMLAHHISGLPVVDSADNLVGIICESDFLRRSEIGTEHERNRLLSLLLGAERVASEFVKERGRKVEQVMTRQPVTTNEQAPLDEVADVMERRHLNHIPVMRADRIVGIITRSDFLSAVAGPLTGASGYSGSDNQLRRAVLAALAKTPWQPIGLNVRVRDGAVSLRGVIRGESAHRAAIVACENVPGVLRVDDRLCVQPSRPDPEDDYGGGDFVSLQMEPSTLDDEPL
  protein production: failed

## MQGHHAAARALRRQGRLGEAIARYRAALAATPGAAVLQAEMAECLFAAGQAEAAVKALGQAVRLDPDNATHRGNLAMLLARKGDLAGAIDHARAAVRLAPKDGALRLRLARLLIAAGHPREAEAEALDATRRLPREAASWIALAGARLLDQRPNDAEAPSARALALAPNDAEALSLRTDLLLSLGRLAEAEATARLALKRQPTSLAALVALSKAKTFRPDDPDWPALAALLPSLGERSAEEAVKLHFASAKALEDMGRDDEAFAHYQAGNSLKGRGLPDELPALSAMVDSLERWTPKLRPVGEGDPLPVFIVGMPRSGTTLVEQILDRHRAIHGAGEILLFGERVVANGLGGYSADPQGLDPERLAALGADYRDRLRGLAPRAGRIINKTPGNWLHLGLIAAALPGARIIWCRRDPVDCCLSCFRNLFGQGHAWTTDLGRAGRYYRLQERLTGHWQAVLGDERMTAVDYEALVADPEAEARRLVAHLGLEWDEACLDHTRGGRAVTTLSQVQVRQPITDASVGRGRRFQTHLGPLLTALDGR
  protein production: failed

## MSDLLPLISVYGYVAALLLISEKTLKNEVVSRKFLHIMVGNIAFILPFFESRFVMAFLAAFPFVVLTFLMSPHSPVKLSSRTSVAGHGLGLVYYSIAWTVLAYAFFDRPDVIAVGIMAMSYGDGLASLIGGRYGKRKFRILGDEKSLEGSVAMFLGCVASFSVVSLYYHGSAGPLLLPLAAFATVVEAVTPKGLDNLSVSILTAILYFWMA
  protein production: failed

## MNKRAREWVSVGITWVQDVIYVALGILLTLACAVLLLHGGVNLVGALGRDLDLQVIVQLLDRILLAMMIVELLYTVKVSFRDHLLVPEPFLLVALIAAIRRILVITAEFGAQAPSGDEQFRHVMSELGLLTVLILVLVGSVVILRRRDSAEAPR
  protein production: failed

## MYYVIFAQDIPNTLEKRLAVREQHLARLKQLQAENRLLTAGPNPAIDDENPSEAGFTGSTVIAQFENLQAAKDWAAQDPYVEAGVYADVIVKPFKKVF
  protein production: not failed

## MKVFFVVTHLLGSGHLSRTLVLARAHLKAGHEVTLISGGMPVPHLSHDGITLVQLPALRSDGVNFTRLLDDKGDVASETLMRDRREKLLSTFEEAAPDVLVTELFPFGRRSLSDEFLALLNMAKARKNPPRICCSIRDILAPPSKPSKAARVRDIITEFYDAIIVHSDPDVTPLAASWPVTEDIAEKLRYSGFVANPPAPMHPDAPGQGEVLVSAGGGAVGDALYAAALGAAKLNGDLHWRVLVGGADAPAKCAALKEGCPANTTIEPARPDFRQMLHRAKASVSMCGYNTALDILQSGTPAVFVPFDAGGEVEQSLRASALAKMAGIRVVNSVDLQPEALLNTVHSVVQDPRRGPQTRGLDGASRTAELLETLVEASGHAG
  protein production: failed

## MKRDHHQFQGRLSNHGTSSSSSSISKDKMMMVKKEEDGGGNMDDELLAVLGYKVRSSEMAEVALKLEQLETMMSNVQEDGLSHLATDTVHYNPSELYSWLDNMLSELNPPPLPASSNGLDPVLPSPEICGFPASDYDLKVIPGNAIYQFPAIDSSSSSNNQNKRLKSCSSPDSMVTSTSTGTQIGGVIGTTVTTTTTTTTAAGESTRSVILVDSQENGVRLVHALMACAEAIQQNNLTLAEALVKQIGCLAVSQAGAMRKVATYFAEALARRIYRLSPPQNQIDHCLSDTLQMHFYETCPYLKFAHFTANQAILEAFEGKKRVHVIDFSMNQGLQWPALMQALALREGGPPTFRLTGIGPPAPDNSDHLHEVGCKLAQLAEAIHVEFEYRGFVANSLADLDASMLELRPSDTEAVAVNSVFELHKLLGRPGGIEKVLGVVKQIKPVIFTVVEQESNHNGPVFLDRFTESLHYYSTLFDSLEGVPNSQDKVMSEVYLGKQICNLVACEGPDRVERHETLSQWGNRFGSSGLAPAHLGSNAFKQASMLLSVFNSGQGYRVEESNGCLMLGWHTRPLITTSAWKLSTAAY
  protein production: failed

## STRFPGVAIYLVEPRMGRSRRAFLTGLARSKGFRVLDACSSEATHVVMEETSAEEAVSWQERRMAAAPPGCTPPALLDISWLTESLGAGQPVPVECRHRLEVAGPRKGPLSPAWMPAYAC
  protein production: not failed
